{
  "source": "patent US9694061B2",
  "about": "“Fully human antibodies to high molecular weight-melanoma associated antigen and uses thereof” (University of Pittsburgh—Of the Commonwealth System of …, priority 2008, dated 2017)",
  "molecules": {"B1": {"name": "scFv C21: HMW-MAA-specific fully human scFv from semi-synthetic phage display library; VH SEQ ID NO: 5, VL SEQ ID NO: 6 (antibody, listed as Homo sapiens, V domains shown)", "VH": "QVQLVQSGAEVKKPGSSVKVSCKASGGTFSSYAISWVRQAPGQGLEWMGGIIPIFGTANYAQKFQGRVTITADESTSTAYMELSSLRSDDTAVYYCARALDPITFDSWGQGTLVTVSR", "VL": "SELTQDPAVSVALGQTVRITCQGDSLRSYYASWYQQKPGQAPVLVIYGKNNRPSGIPDRFSGSSSGNTASLTITGAQAEDEADYYCNSRDSSGNHVVFGGGTKLTVLGRS", "modifications": "scFv linker"}},
  "assay_type_in_all_cases": "binding",
  "key": {"HMW-MAA [1]": {"target": "T1, HMW-MAA (Homo sapiens, UniProt Q6UVK1)", "T1 sequence (Q6UVK1 30-2322)": "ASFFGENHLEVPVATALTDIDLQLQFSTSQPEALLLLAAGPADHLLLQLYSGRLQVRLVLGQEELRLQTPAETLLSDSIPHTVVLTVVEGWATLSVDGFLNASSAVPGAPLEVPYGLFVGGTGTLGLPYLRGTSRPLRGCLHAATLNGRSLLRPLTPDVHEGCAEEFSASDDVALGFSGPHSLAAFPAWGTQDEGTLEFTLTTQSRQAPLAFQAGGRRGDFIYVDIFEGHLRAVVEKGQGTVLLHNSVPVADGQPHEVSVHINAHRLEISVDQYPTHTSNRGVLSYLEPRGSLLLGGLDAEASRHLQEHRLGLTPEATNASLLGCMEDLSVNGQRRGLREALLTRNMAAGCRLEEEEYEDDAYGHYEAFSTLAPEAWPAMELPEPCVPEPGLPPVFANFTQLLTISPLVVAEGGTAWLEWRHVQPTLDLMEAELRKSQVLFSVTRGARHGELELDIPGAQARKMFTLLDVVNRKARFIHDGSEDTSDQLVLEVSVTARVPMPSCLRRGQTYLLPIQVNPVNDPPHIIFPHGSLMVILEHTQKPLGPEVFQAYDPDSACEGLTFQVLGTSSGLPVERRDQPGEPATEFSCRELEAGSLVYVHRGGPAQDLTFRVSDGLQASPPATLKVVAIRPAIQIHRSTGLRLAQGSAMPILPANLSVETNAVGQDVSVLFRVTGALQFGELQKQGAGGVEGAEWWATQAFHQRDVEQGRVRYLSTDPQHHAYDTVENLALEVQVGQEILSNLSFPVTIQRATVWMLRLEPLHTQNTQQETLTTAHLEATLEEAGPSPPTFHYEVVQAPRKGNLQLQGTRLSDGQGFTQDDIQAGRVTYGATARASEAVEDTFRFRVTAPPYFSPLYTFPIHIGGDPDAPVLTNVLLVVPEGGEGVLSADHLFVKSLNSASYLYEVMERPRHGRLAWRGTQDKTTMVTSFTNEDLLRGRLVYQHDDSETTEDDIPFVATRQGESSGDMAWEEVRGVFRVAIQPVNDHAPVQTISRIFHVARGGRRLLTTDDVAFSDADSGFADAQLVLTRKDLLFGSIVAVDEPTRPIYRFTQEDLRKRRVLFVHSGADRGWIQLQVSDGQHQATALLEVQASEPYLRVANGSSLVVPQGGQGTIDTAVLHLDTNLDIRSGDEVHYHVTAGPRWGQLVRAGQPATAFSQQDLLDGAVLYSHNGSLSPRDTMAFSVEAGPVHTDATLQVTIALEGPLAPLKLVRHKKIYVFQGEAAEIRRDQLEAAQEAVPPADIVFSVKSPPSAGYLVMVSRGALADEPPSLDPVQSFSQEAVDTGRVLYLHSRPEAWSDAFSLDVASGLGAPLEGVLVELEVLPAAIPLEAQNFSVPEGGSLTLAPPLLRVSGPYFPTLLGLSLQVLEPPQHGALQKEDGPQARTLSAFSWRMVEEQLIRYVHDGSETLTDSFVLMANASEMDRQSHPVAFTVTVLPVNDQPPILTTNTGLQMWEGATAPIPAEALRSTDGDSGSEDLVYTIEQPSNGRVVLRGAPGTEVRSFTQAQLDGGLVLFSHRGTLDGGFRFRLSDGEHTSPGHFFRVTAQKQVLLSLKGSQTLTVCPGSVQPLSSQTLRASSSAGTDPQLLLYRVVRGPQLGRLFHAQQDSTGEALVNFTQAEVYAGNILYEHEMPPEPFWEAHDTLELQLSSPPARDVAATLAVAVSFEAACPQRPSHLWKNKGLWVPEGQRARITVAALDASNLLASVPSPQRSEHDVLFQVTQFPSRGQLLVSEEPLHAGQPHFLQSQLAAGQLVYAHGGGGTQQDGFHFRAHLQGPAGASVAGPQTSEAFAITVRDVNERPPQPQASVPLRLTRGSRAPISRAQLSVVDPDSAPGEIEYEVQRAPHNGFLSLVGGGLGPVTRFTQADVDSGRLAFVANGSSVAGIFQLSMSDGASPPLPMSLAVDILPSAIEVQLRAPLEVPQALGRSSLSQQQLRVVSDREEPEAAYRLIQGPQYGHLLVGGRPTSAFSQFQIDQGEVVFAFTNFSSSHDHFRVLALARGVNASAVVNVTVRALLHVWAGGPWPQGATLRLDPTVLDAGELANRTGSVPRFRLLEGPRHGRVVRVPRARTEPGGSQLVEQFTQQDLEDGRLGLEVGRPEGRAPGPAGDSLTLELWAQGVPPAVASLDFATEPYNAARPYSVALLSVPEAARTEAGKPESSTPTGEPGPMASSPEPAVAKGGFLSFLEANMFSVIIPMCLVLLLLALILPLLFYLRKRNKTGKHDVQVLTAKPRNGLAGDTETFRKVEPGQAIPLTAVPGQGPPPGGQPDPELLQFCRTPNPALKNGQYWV", "assay": "Indirect immunoperoxidase staining of melanocytic lesions", "parameters": "from tissue; host or cells: human nevi, primary and metastatic melanoma lesions (frozen sections)", "excerpt": "FIGS. 6A-6F. Immunohistochemical staining by scFv C21 of frozen surgically removed human nevi and melanoma lesions. scFv C21 stains a frozen nevus (FIG. 6A), a frozen primary melanoma lesion (FIG. 6B) and a frozen metastatic melanoma lesion (FIG. 6C). The specificity of the staining was monitored by staining the nevus (FIG. 6D), the primary (FIG. 6E) and the metastatic (FIG. 6F) melanoma lesions with the unrelated scFv #119.\nThe human melanoma cell lines Colo38, FO-1 and Melur and the human B lymphoid cell line LG2 were maintained in RPMI 1640 medium (Tissue Culture Media Facility, Roswell Park Cancer Institute (RPCI), Buffalo, N.Y.) supplemented with 10% serum plus supplement (BioWhittaker, Walkersville, Md.) and 2 mM L-glutamine (BioWhittaker). The human melanoma cell lines M14 and SK-MEL-28, the human fibroblasts FF2376, the human breast carcinoma cell line T47D, the human bladder carcinoma cell line T24, the human prostate carcinoma cell line PC3, the human B lymphoid cell lines JY and LKT13, and the rat neural cell line B49 were maintained in RPMI 1640 medium supplemented with 10% fetal bovine serum (FBS) (BioWhittaker) and 2 mM L-glutamine. The M14/HMW-MAA cells which express HMW-MAA following transfection of M14 cells with a plasmid DNA of pcDNA 3.1™ (+)/full length of HMW-MAA DNA construct (Yang et al., J Cell Biol 165:881-891, 2004) were grown in RPMI 1640 medium supplemented with 10% FBS, 2 mM L-glutamine and 0.4 mg/ml G418 (Promega, Madison, Wis.). Cells were cultured at 37° C. in a 5% CO2 atmosphere. Cell lysates were prepared as described (Desai et al., Cancer Res 58:2417-2425, 1998, herein incorporated by reference). Lesions of melanocytic origin were obtained from patients who had undergone surgery in the Department of Dermatology at Kumamoto University School of Medicine (Kumamoto, Japan). The diagnosis of melanoma lesions was based on histopathologic characteristics. The frozen and formalin-fixed tissue sections were prepared as described previously (Desai et al., Cancer Res 58:2417-2425, 1998, herein incorporated by reference).\nThe indirect immunoperoxidase staining of frozen and formalin-fixed tissue sections was performed as described previously (Desai et al., Cancer Res 58:2417-2425, 1998, herein incorporated by reference)."}, "HMW-MAA [2]": {"target": "T1, HMW-MAA", "assay": "ELISA of soluble scFv antibodies with cell lines", "parameters": "Cultured human melanoma cells Colo38, FO-1, SK-MEL-28 and Melur, all of which express HMW-MAA; endogenous in cells; host or cells: Colo38, FO-1, SK-MEL-28, Melur human melanoma cells", "method": "FIG. 1. Selective reactivity in ELISA of soluble scFv C21 with HMW-MAA^+ human cell lines. […] Binding of scFv fragments was detected using SA-HRP. Results are expressed as absorbance at 490 nm. Human anti-anti-id scFv #119 ( ? ) was used as a specificity control.\nThe ELISA to test the reactivity of soluble scFv antibodies with synthetic peptides and melanoma cells and of mouse immune sera with melanoma cells and with peptides was performed as described (Desai et al., Cancer Res 58:2417-2425, 1998; Desai et al., J Immunol 165:3275-3283, 2000; Matsui et al., J Immunol 139:2088-2095, 1987). Results are expressed as absorbance of optical density (O.D.) at 450 nm. The competition assay to map the antigenic determinant recognized by scFv C21 was performed by mixing biotinylated scFv C21 (0.25 μg/well) with two-fold dilutions of mouse mAb or scFv PP or by mixing biotinylated mAb (at an optimal amount giving absorbance, measured at 450 nm of 1.0) with two fold dilutions of scFv PP. […] Binding of biotinylated scFv antibodies and biotinylated mAb to target cells was measured by sequential incubation with SA-HRP and substrate as described (Noronha et al., J Immunol 161:2968-2976, 1998). The results are expressed as percent inhibition by mAb, scFv or peptide (competitor or inhibitor) of scFv or mAb binding to HMW-MAA^+ cells. […]"}, "HMW-MAA [3]": {"target": "T1, HMW-MAA", "assay": "Competition assay to map the antigenic determinant on SK-MEL-28 cells", "parameters": "from tissue; host or cells: human nevi, primary and metastatic melanoma lesions (frozen sections)", "conditions": "biotinylated mAb VF1-TP34, competitor PP scFv C21", "method": "FIG. 5. Spatial proximity of the determinant defined by scFv C21 and of that defined by mouse mAb VF1-TP34 on HMW-MAA^+ melanoma cells SK-MEL-28. Varying concentrations of mAb VF1-TP34 (-●-) (left panel) were mixed with biotinylated scFv C21 (0.25 μg/well). The mixture was then transferred to wells containing HMW-MAA^+ cells and incubated for 1 h at 4° C. Binding of antibodies was detected using SA-HRP. Results are expressed as % inhibition. Likewise, varying amounts of PP scFv C21 (-▴-) (right panel) were mixed with biotinylated mAb VF1-TP34 (40 ng/well). The mixture was then transferred to wells containing HMW-MAA^+ cells and incubated for 1 h at 4° C. […]\nThe ELISA to test the reactivity of soluble scFv antibodies with synthetic peptides and melanoma cells and of mouse immune sera with melanoma cells and with peptides was performed as described (Desai et al., Cancer Res 58:2417-2425, 1998; Desai et al., J Immunol 165:3275-3283, 2000; Matsui et al., J Immunol 139:2088-2095, 1987). Results are expressed as absorbance of optical density (O.D.) at 450 nm. The competition assay to map the antigenic determinant recognized by scFv C21 was performed by mixing biotinylated scFv C21 (0.25 μg/well) with two-fold dilutions of mouse mAb or scFv PP or by mixing biotinylated mAb (at an optimal amount giving absorbance, measured at 450 nm of 1.0) with two fold dilutions of scFv PP. […]"}},
  "data": [
    {"molecule": "B1", "values": [
      {"measurement": "Staining of formalin fixed paraffin embedded melanocytic lesions", "setting": "HMW-MAA [1]; formalin fixed paraffin embedded", "result": "did not stain"},
      {"measurement": "Staining of frozen melanocytic lesions in the immunoperoxidase reaction", "setting": "HMW-MAA [1]; frozen sections", "result": "stained frozen melanocytic lesions"},
      {"measurement": "Metastatic lesions stained with a heterogeneous pattern", "setting": "HMW-MAA [1]; metastatic lesions", "result": 3, "unit": "lesions"},
      {"measurement": "Metastatic lesions stained with a homogeneous pattern", "setting": "HMW-MAA [1]; metastatic lesions", "result": 3, "unit": "lesions"},
      {"measurement": "Metastatic lesions with cytoplasmic staining", "setting": "HMW-MAA [1]; metastatic lesions", "result": 3, "unit": "lesions"},
      {"measurement": "Metastatic lesions with membranous and cytoplasmic staining", "setting": "HMW-MAA [1]; metastatic lesions", "result": 3, "unit": "lesions"},
      {"measurement": "Primary lesions stained with a heterogeneous pattern", "setting": "HMW-MAA [1]; out of 15 primary lesions", "result": 2, "unit": "lesions"},
      {"measurement": "Primary lesions stained with a homogeneous pattern", "setting": "HMW-MAA [1]; out of 15 primary lesions", "result": 9, "unit": "lesions"},
      {"measurement": "Pigmented nevi stained homogeneously (membranous and cytoplasmic pattern)", "setting": "HMW-MAA [1]; pigmented nevi", "result": 4},
      {"measurement": "Primary lesions with cytoplasmic staining", "setting": "HMW-MAA [1]; primary lesions", "result": 6, "unit": "lesions"},
      {"measurement": "Primary lesions with membranous and cytoplasmic staining", "setting": "HMW-MAA [1]; primary lesions", "result": 4, "unit": "lesions"},
      {"measurement": "Primary lesions with membranous staining", "setting": "HMW-MAA [1]; primary lesions", "result": 1, "unit": "lesions"},
      {"measurement": "Reactivity in ELISA with panel of human cell lines with differential HMW-MAA expression and rat neural cell line B49", "setting": "HMW-MAA [2]; FIG. 1", "result": "reacted only with the melanoma cell lines Colo38, FO-1, Melur and SK-MEL-28"},
      {"measurement": "Reactivity in ELISA relative to the other selected clones", "setting": "HMW-MAA [2]; clones C3, C21, C29, C30", "result": "highest reactivity"},
      {"measurement": "Inhibition of binding of mAb VF1-TP34 to SK-MEL-28 cells", "setting": "HMW-MAA [3]", "result": "partially inhibited each other"}
    ]}
  ]
}
